Test results taken from publication PMC5733570.

What was measured:
[1] = molecular target: TbTrm140 N-terminal deletion mutant (TbTrm140 ΔS2-G17) (T. brucei); assay: SEC
[2] = molecular target: TbTrm140 (3-methylcytosine methyltransferase of Trypanosoma brucei), wild type (T. brucei); assay: SEC

With “TbTrm140 N-terminal deletion mutant (TbTrm140 ΔS2-G17) (enzyme)” the stoichiometry N [1] was 2.
Work on “TbTrm140 (3-methylcytosine methyltransferase of Trypanosoma brucei), wild type (enzyme)” yielded a stoichiometry N [2] of 2.
